Experimental data: US20180030111A1
Read-outs that look alike come from different tables or passages of the source.

How the values were obtained:
[1] = molecular target: C1q complement (rabbit serum as complement source) (rabbit); assay: cell-based or functional assay
[2] = molecular target: FcgRIIIa receptor (CD16a) on human NK cells (human) (UniProt P08637); assay: cell-based or functional assay
[3] = molecular target: C1q complement (rabbit serum as complement source) (rabbit); assay: cell-based or functional assay; remark: listed apart in the source
[4] = molecular target: C1q complement (rabbit serum as complement source) (rabbit); assay: cell-based or functional assay; remark: listed apart in the source
CD64 = CD64 (UniProt P12314); assay: ELISA, purified IgG on coated receptor, ratio against wild-type
Sequence of CD64 (P12314 16-288 limits assumed): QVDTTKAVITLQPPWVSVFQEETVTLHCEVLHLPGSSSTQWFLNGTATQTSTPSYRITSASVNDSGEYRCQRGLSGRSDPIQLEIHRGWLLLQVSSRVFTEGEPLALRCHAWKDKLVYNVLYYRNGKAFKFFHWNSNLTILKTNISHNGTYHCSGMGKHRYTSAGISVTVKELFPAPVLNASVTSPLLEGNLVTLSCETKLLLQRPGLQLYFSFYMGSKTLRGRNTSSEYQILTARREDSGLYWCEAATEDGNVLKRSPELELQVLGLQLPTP

[5] = molecular target: CD32aR (FcgRIIa receptor, R at position 131) (human) (UniProt P12318); assay: as above
[6] = molecular target: CD32aH (FcgRIIa receptor, H at position 131) (human) (UniProt P12318); assay: as above
Sequence of CD32aH (FcgRIIa receptor, H at position 131) (human) (P12318 34-217): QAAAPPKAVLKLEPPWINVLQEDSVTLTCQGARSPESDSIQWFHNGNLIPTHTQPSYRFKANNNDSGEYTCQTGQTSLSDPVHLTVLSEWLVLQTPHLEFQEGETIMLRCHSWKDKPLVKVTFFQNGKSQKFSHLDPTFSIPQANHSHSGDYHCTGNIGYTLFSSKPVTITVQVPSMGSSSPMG

[7] = molecular target: CD32b (FcgRIIb receptor) (human) (UniProt P31994); assay: as above
Sequence of CD32b (FcgRIIb receptor) (human) (P31994 46-217): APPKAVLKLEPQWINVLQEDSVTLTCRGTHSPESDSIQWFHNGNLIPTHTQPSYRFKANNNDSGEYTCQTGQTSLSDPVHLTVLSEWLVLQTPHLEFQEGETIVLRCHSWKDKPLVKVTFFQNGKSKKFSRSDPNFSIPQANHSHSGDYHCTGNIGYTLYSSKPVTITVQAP

Sequence of FcgRIIIa receptor (CD16a) on human NK cells (human) (P08637 17-254): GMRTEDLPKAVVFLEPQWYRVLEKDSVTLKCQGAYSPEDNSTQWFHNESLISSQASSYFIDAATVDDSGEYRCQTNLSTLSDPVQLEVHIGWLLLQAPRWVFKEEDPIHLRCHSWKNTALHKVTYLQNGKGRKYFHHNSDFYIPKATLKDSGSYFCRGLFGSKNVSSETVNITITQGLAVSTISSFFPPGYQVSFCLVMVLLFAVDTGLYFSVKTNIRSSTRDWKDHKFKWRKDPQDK

| Substance | CDC [1] | ADCC [2] | ADCC, EC50: Antibody concentration (ng/ml) giving 50% maximum lysis of an internal control [2] | ADCC, Ratio [WT]/[antibody] [2] | CDC, Antibody concentration (ng/ml) giving 50% lysis of an internal control [3] | CDC, Ratio [WT]/[antibody] [3] | ADCC, EC45: Antibody concentration (ng/ml) giving 45% maximum lysis of an internal control [2] | CDC, Antibody concentration (ng/ml) giving 50% lysis of an internal control [4] | CDC, Ratio [WT]/[antibody] [4] | ELISA ratio (purified antibodies) (CD64) | ELISA ratio (purified antibodies) [5] | ELISA ratio (purified antibodies) [6] | ELISA ratio (purified antibodies) [7] | CDC, Antibody concentration (ng/ml) giving 50% lysis of an internal control [1] | CDC, Ratio [WT]/[antibody] [1] |
| --- | --- | --- | --- | --- | --- | --- | --- | --- | --- | --- | --- | --- | --- | --- | --- |
| anti-CD20 IgG variant QL2A-16 (K248E, N421T) (antibody) |  |  | 4.36 ng/mL | 2.41 | 51.5 ng/mL | 4.59 |  |  |  |  |  |  |  |  |  |
| anti-CD20 IgG variant O3A-44 (A378V, K439R) (antibody) |  |  |  | 0.62 |  |  | 2.6 ng/mL | 129 ng/mL | 1.03 |  |  |  |  |  |  |
| anti-CD20 IgG variant J3A-16 (N286Y, P352S, A378V) (antibody) | 1.8 | 8.3 | 1.27 ng/mL | 8.28 | 132 ng/mL | 1.79 |  |  |  | 1.3 | 1.7 | 2.61 | 1.7 |  |  |
| anti-CD20 IgG variant A3A-105D (G316D, K326E, A378V) (antibody) | 6.1 | 8.3 | 1.27 ng/mL | 8.28 | 38.5 ng/mL | 6.14 |  |  |  | 1.5 | 2.6 | 1.4 | 2 |  |  |
| anti-CD20 IgG variant N3A-27 (K290E, A378V, K392R, S440G) (antibody) |  |  |  | 0.86 |  |  | 18.7 ng/mL | 179 ng/mL | 0.74 |  |  |  |  |  |  |
| anti-CD20 IgG variant N3A-32 (K326T, K334N, P352S, N421T) (antibody) |  |  |  | 0.55 |  |  | 2.9 ng/mL | 66 ng/mL | 2.02 |  |  |  |  |  |  |
| anti-CD20 IgG variant P4B-89 (T307P, T366A, A378V) (antibody) |  |  |  | 0.44 |  |  | 3.6 ng/mL | 115 ng/mL | 1.16 |  |  |  |  |  |  |
| anti-CD20 IgG variant K3B-87 (V323I, F405L) (antibody) |  |  | 16.3 ng/mL | 0.64 | 107 ng/mL | 2.22 |  |  |  |  |  |  |  |  |  |
| anti-CD20 IgG variant J3B-118 (P396L, N421T) (antibody) | 12.2 | 9.7 |  |  |  |  |  |  |  | 1.6 | 1.1 | 1 | 1 | 38.7 ng/mL | 6.77 |
| anti-CD20 IgG variant J3B-16 (S267G, A378T, V397M) (antibody) |  |  |  |  |  |  |  |  |  |  |  |  |  | 210 ng/mL | 1.25 |
| anti-CD20 IgG variant A3A-184 (K334N, P352S, V397M) (antibody) | 2.2 | 5.3 |  |  |  |  |  |  |  | 1.4 | 3.2 | 1.33 | 3.3 | 210 ng/mL | 1.25 |
| anti-CD20 IgG variant A3A-184A (K334N, P352S, V397M, A378V) (antibody) | 3.2 | 30.9 | 0.34 ng/mL | 30.9 | 74.1 ng/mL | 3.2 |  |  |  | 1.5 | 4.3 | 1.3 | 3.1 |  |  |
| anti-CD20 IgG variant N3A-58 (V284L, K334R, A378V, K447N) (antibody) |  |  |  | 0.36 |  |  | 4.4 ng/mL | 36 ng/mL | 3.69 |  |  |  |  |  |  |
| anti-CD20 IgG variant O3A-86 (K248E, K290E, N361H, P396L) (antibody) |  |  |  | 0.36 |  |  | 4.4 ng/mL | 44 ng/mL | 3.02 |  |  |  |  |  |  |
| anti-CD20 IgG variant DL4A-54 (P352L, Q418P) (antibody) |  |  | > 5000 ng/mL | < 0.002 | 165 ng/mL | 1.44 |  |  |  |  |  |  |  |  |  |
| anti-CD20 IgG variant G3A-45 (K246R, A378V) (antibody) |  |  |  |  |  |  |  |  |  |  |  |  |  | 195 ng/mL | 1.34 |

Now from value to substance:

| CDC [1] | ADCC [2] | ADCC, EC50: Antibody concentration (ng/ml) giving 50% maximum lysis of an internal control [2] | ADCC, Ratio [WT]/[antibody] [2] | CDC, Antibody concentration (ng/ml) giving 50% lysis of an internal control [3] | CDC, Ratio [WT]/[antibody] [3] | ADCC, EC45: Antibody concentration (ng/ml) giving 45% maximum lysis of an internal control [2] | CDC, Antibody concentration (ng/ml) giving 50% lysis of an internal control [4] | CDC, Ratio [WT]/[antibody] [4] | ELISA ratio (purified antibodies) (CD64) | ELISA ratio (purified antibodies) [5] | ELISA ratio (purified antibodies) [6] | ELISA ratio (purified antibodies) [7] | CDC, Antibody concentration (ng/ml) giving 50% lysis of an internal control [1] | CDC, Ratio [WT]/[antibody] [1] | Substance |
| --- | --- | --- | --- | --- | --- | --- | --- | --- | --- | --- | --- | --- | --- | --- | --- |
| 2.4 | 18.4 | 0.57 ng/mL |  |  |  |  |  |  |  |  |  |  |  |  | anti-CD20 IgG variant J3B-23 (N286I, A378V, F423Y) (antibody) |
|  |  | 2.8 ng/mL | 3.75 | 85.7 ng/mL | 2.76 |  |  |  |  |  |  |  |  |  | anti-CD20 IgG variant G3A-139 (T307N, V323I) (antibody) |
|  |  |  | 0.94 |  |  | 1.7 ng/mL | 126 ng/mL | 1.06 |  |  |  |  |  |  | anti-CD20 IgG variant Q4B-68 (T307P, A378V, T394P) (antibody) |
| 1.3 | 10.8 | 0.97 ng/mL | 10.8 | 177 ng/mL | 1.34 |  |  |  | 1.3 | 0.9 | 0.7 | 1 |  |  | anti-CD20 IgG variant G3A-95 (I336T, A378V) (antibody) |
| 0.9 | 1.3 | 8.07 ng/mL | 1.3 | 274 ng/mL | 0.86 |  |  |  | 2.4 | 3.7 | 2.94 | 3.9 |  |  | anti-CD20 IgG variant G3A-88 (K320E, T394P, G402D) (antibody) |
| 3.7 |  | 7.39 ng/mL |  | 64.1 ng/mL |  |  |  |  |  |  |  |  |  |  | anti-CD20 IgG variant J3A-14 (K326T) (antibody) |
| 2.8 | 12 |  |  |  |  |  |  |  | 1.4 | 3.6 | 5.3 | 2.7 | 168 ng/mL | 1.55 | anti-CD20 IgG variant G3A-43 (A231V, A378V) (antibody) |
